Key:
[1] = target: SsoDpo1 exonuclease mutant (D231A/D318A) (Sulfolobus solfataricus P2) (UniProt P26811); experiment: native gel or EMSA
[2] = target: SsoDpo1 exonuclease mutant (D231A/D318A) (Sulfolobus solfataricus P2) (UniProt P26811); experiment: ITC
[3] = target: T1, SsoDpo1 exo- (B-family DNA polymerase 1) (Sulfolobus solfataricus, UniProt P26811 1-882, D231A;D318A); experiment: EMSA
T1 sequence: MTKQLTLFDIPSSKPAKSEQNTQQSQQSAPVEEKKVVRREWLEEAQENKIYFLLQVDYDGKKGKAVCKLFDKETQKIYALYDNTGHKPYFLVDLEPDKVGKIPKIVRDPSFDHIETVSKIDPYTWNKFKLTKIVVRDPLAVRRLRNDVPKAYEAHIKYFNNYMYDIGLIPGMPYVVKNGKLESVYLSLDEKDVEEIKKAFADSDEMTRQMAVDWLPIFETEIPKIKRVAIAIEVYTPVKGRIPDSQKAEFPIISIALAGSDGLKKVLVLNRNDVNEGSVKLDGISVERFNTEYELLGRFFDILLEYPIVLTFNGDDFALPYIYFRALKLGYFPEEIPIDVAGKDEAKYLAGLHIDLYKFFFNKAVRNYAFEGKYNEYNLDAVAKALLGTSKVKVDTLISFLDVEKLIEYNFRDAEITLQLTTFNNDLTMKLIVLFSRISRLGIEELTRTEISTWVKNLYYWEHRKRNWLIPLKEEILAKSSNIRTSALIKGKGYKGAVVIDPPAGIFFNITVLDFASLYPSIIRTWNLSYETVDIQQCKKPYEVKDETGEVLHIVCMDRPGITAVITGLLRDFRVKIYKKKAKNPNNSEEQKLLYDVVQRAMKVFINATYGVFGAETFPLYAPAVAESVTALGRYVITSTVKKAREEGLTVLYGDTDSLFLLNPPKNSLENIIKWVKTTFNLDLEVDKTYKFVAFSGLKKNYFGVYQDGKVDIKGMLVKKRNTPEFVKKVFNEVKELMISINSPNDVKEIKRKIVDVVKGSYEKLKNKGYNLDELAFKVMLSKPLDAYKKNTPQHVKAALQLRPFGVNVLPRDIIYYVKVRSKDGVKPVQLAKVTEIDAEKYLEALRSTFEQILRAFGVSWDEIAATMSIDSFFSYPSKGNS

[4] = target: T1, SsoDpo1 exo- (B-family DNA polymerase 1); experiment: ITC
[5] = target: T1, SsoDpo1 exo- (B-family DNA polymerase 1); experiment: fluorescence anisotropy

SsoDpo1 exonuclease mutant (D231A/D318A) (from UniProt P26811 1-882) (enzyme)
stoichiometry N [1]: 3.5
stoichiometry N [2]: 2.84

B1: long p/tDNA 28/66-mer (dsDNA)
DNA 1: CACCTCTCCCTACGCTTCCCACCCACCCCGACCGGCATCTGCTATGGTACGCTGAGCGAGAGTAGC
DNA 2: GCTACTCTCGCTCAGCGTACCATAGCAG
Kd [3]: 0.1 ± 0.01 nM

B2: short p/tDNA 21/31-mer (dsDNA)
DNA 1: GCTGTGCTCTCGCCGCGTGCC
DNA 2: TATCTTCTATGGCACGCGGCGAGAGCACAGC
Kd [4]: 1200 ± 100 nM

B3: Cy5 p/tDNA hairpin (structured_DNA)
DNA: TTTTTTTTTTTTTTTCGAATGGCGCTTTGCCTGGTTTTTACCAGGCAAAGCGCCATTCG
binding result [5]: binds

— PMC2790891
